From patent US20210292762, “ICAM-1 APTAMERS, DIAGNOSTIC AND THERAPEUTIC USES THEREOF” (BRACCO IMAGING S.P.A., published 2021)

Tests used:
[1] = target: ICAM-1 (endogenous, TNFalpha-induced) (UniProt P05362 P05362:28-532); test: flow; TNFalpha-stimulated HMEC-1 cells, 37 C 30 min, yeast tRNA 200 ug/mL pre-treatment, n=3; conditions: tags: HMEC-1 cells stimulated with TNFalpha 48 h; label: 5'-Alexa Fluor 488
Procedure: HMEC-1 cells were stimulated with TNFalpha for 48h to induce ICAM-1 expression.

ICAM-1 [2] = target: T1, ICAM-1 (Homo sapiens, UniProt P05362 P05362:28-532); test: flow; COS7-ICAM-1 cells, 37 C 30 min, yeast tRNA 200 ug/mL pre-treatment, n=6; conditions: tags: full-length human ICAM-1 cDNA (pCMV6-ICAM-1) transiently expressed in COS7 cells; label: 5'-Alexa Fluor 488
T1 sequence (P05362 28-532, one chain of several): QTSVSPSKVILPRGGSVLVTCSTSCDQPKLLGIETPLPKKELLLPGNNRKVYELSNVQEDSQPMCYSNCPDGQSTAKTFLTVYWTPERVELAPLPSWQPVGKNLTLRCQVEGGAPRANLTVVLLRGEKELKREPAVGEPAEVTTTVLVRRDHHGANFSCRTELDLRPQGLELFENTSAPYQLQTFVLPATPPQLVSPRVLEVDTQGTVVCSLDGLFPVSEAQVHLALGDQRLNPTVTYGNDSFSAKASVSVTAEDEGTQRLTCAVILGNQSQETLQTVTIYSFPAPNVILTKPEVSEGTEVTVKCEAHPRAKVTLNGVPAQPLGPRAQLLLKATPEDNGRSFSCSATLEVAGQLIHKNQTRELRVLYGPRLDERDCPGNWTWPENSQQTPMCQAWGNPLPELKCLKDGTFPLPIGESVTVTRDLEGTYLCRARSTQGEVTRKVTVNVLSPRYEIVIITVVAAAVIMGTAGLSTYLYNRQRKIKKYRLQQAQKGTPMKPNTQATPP

ICAM-1 [3] = target: T1, ICAM-1; test: RT-qPCR cell binding on COS7-ICAM-1, 37 C 15 min, yeast tRNA 200 ug/mL pre-treatment; conditions: tags: full-length human ICAM-1 cDNA (pCMV6-ICAM-1) transiently expressed in COS7 cells
Procedure: The same experiment was carried out with the unrelated aptamer A10, as negative control (sequence disclosed in Lupold S. E. et al., Cancer Res. 2002, 62, 4029-4033). The binding was evaluated by RT-qPCR.

ICAM-1 [4] = target: T1, ICAM-1; test: RT-qPCR cell binding, 50 nM RNA, 37 C 15 min; conditions: tags: full-length human ICAM-1 cDNA (pCMV6-ICAM-1) transiently expressed in COS7 cells
Procedure: To the aim of testing if the short aptamer 10.T (SEQ ID NO: 1) contained the active site of the original molecule 12c-10 (SEQ ID NO: 2) and preserved high binding and affinity to COS7-ICAM-1, binding assays were performed maintaining the same conditions used for long aptamers screening.
The RNA sequence 10.T was incubated at 50 nM, as final concentration, for 15 minutes at 37° C. on COS7-WT and COS7-ICAM-1. The ratio comparing binding values of COS7-ICAM-1 over COS7-WT (fold change) is reported in FIG. 5, showing a value of 2.2.

ICAM-1 [5] = target: T1, ICAM-1; test: RT-qPCR cell binding, 50 nM RNA, 37 C 15 min, yeast tRNA pre-treatment; conditions: tags: full-length human ICAM-1 cDNA (pCMV6-ICAM-1) transiently expressed in COS7 cells
Procedure: Following the analysis of the enriched sequences, binding assays by RT-qPCR were performed in order to select the sequences able to bind COS7-ICAM-1. Essentially, DNA sequences were amplified and transcribed. Then, RNA sequences were incubated at 50 nM, as final concentration, for 15 minutes at 37° C., after pre-treatment with yeast tRNA 200 μg/mL, on COS7-WT and COS7-ICAM-1. Following incubation, cells were washed 3 times with PBS and recovered in TRIsure reagent. An RNA sequence used as reference control was spotted in each point for the normalization. A fold ratio was calculated comparing binding values of COS7-ICAM-1 over COS7-WT. Twelve sequences representatives of couples or groups of identical sequences were screened. Those with higher fold ratio were chosen for further analysis performing experimental triplicates.

Chain of ICAM-1 (endogenous, TNFalpha-induced) (P05362 28-532, one chain of several): as above

B1: Alexa488-10.T (ssRNA)
RNA: UCAUGAUACGUUGCGUGAGCAACUGCGGCGCUAAAGUUUGGUUGACUAGUACAUG
modifications: 2'-F pyrimidines; 5'-C12 amino linker
[1]
  Kd: 106 nM
ICAM-1 [2]
  Kd: 116 nM

B2: 10.T (ssRNA)
RNA: UCAUGAUACGUUGCGUGAGCAACUGCGGCGCUAAAGUUUGGUUGACUAGUACAUG
modifications: 2'-F pyrimidines
ICAM-1 [3]
  Kd: 376 nM
ICAM-1 [4]
  binding signal: 2.2 fold COS7-ICAM-1 over COS7-WT

B3: 12c-10 (ssRNA)
RNA: GGGAAGAGAAGGACAUAUGAUCAUGAUACGUUGCGUGAGCAACUGCGGCGCUAAAGUUUGGUUGACUAGUACAUGACCACUUGA
modifications: 2'-F pyrimidines
ICAM-1 [5]
  binding signal: 3.13 fold COS7-ICAM-1 over COS7-WT
